The text below walks through data of article PMC8563757, “NudCL2 is an autophagy receptor that mediates selective autophagic degradation of CP110 at mother centrioles to promote ciliogenesis” (Cell Research, 2021).

The target in this assay is T1, His-CP110 (mouse, UniProt Q7TSH4 1-1004).
T1 construct: Full-length mouse CP110 cloned by RT-PCR into pFastBac-HT A (His-tag vector); also called purified His-CP110; source: insect Sf9 cells, Bac-to-Bac baculovirus expression system, purified
T1 sequence (looked up): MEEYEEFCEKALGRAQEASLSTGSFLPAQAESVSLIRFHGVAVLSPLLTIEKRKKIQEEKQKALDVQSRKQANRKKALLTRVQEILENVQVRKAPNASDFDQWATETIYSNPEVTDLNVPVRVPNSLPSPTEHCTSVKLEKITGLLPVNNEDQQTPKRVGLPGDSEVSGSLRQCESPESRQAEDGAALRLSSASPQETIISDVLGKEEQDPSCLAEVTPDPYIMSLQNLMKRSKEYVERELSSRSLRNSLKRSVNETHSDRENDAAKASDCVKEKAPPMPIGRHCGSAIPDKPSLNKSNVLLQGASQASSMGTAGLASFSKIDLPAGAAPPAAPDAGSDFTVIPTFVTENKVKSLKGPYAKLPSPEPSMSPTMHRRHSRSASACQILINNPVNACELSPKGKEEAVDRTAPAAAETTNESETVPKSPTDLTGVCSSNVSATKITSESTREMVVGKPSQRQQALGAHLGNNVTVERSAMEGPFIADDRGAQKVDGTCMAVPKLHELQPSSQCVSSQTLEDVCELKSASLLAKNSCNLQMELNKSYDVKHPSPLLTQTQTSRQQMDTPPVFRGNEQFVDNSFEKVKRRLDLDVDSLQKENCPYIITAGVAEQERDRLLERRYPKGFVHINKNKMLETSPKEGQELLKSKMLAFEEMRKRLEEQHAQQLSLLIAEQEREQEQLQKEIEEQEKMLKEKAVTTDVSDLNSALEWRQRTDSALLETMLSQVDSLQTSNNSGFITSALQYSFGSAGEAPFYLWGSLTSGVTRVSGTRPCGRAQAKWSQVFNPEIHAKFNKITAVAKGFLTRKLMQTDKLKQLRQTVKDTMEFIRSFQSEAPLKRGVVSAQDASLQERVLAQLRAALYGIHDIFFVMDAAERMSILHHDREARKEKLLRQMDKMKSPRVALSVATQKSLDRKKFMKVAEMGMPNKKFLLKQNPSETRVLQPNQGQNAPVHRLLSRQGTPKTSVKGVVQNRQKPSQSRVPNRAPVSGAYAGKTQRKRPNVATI
The assay is described as follows: pull-down; GST pull-down of two purified proteins, incubated in PBS at 4 °C for 4 h, glutathione-agarose beads 2 h, western blotting. To be noted: both partners purified. (Immunoblotting shows a protein as a band on a membrane.)

B1: GST-NudCL2 (natural protein, mouse, UniProt Q9CQ48 1-157, looked up)
chain: MSAPFEERSGVVPCGTPWGQWYQTLEEVFIEVQVPPGTRAQDIQCGLQSRHVALAVGGREILKGKLFDSTIADEGTWTLEDRKMVRIVLTKTKRDAANCWTSLLESEYAADPWVQDQMQRKLTLERFQKENPGFDFSGAEISGNYTKGGPDFSNLEK
notes: Full-length mouse NudCL2 amplified from total cDNA by RT-PCR and cloned into pGEX5X-1; also called purified GST-NudCL2; source: Escherichia coli BL21, purified
As for B1, the binding result is reported as “binds”.
